Where two headings read alike, the source gives them in different places.
Assays:
[1] = molecular target: the molecule itself; experiment: SAXS
[2] = molecular target: the molecule itself; experiment: SAXS; remark: listed apart in the source

B1: apo-bacterioferritin from E. coli (core-free, heme B bound) (natural protein)
chain: not shown
stoichiometry N [1]: 2 | stoichiometry N [2]: 24

Reference: paper doi:10.1101/2020.06.16.154534 (bioRxiv, 2020)
